Data from paper PMC4043820.

Target: OsWRKY53 (WT) (Oryza sativa (rice)) (UniProt A7BEY7)
Test: EMSA
Details: 12 mM HEPES-KOH pH 8.0, 60 mM KCl, 4 mM MgCl2, 1 mM EDTA, 12% glycerol, 1 mM DTT, 2.5 mM PMSF, 0.1 ug protein in 20 ul, 20 min on ice; 6% PAGE in 1x TBE at …

Sequence of OsWRKY53 (WT) (Oryza sativa (rice)) (A7BEY7 entry or part of it): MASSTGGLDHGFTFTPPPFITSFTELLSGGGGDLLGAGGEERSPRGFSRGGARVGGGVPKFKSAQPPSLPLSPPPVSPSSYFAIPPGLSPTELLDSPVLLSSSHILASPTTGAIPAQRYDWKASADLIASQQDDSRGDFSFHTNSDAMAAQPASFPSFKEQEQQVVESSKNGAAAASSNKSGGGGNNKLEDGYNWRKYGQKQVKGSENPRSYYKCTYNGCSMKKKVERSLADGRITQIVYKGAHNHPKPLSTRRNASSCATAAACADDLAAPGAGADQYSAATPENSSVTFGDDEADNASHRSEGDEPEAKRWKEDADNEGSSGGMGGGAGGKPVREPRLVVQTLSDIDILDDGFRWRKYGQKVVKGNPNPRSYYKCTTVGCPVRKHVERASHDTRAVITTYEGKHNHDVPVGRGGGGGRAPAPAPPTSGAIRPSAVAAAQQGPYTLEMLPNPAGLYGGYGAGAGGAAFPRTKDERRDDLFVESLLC

“TTTGGGGATGCTTCGGCGAAGGGGGTGAGGTCAAAGCTCGTGCGGTTTGACCGGTCAGACGAGGCGGCTGAGGCTCGCGC (double strand) [W-box probe (W)]” was tested, and the binding was “binds”.
